Laboratory results: patent US20250333467A1 (TECTONIC OPERATING, published 2025)

T1: human RXFP1 (human, UniProt Q9HBX9 1-757)
T1 sequence (looked up): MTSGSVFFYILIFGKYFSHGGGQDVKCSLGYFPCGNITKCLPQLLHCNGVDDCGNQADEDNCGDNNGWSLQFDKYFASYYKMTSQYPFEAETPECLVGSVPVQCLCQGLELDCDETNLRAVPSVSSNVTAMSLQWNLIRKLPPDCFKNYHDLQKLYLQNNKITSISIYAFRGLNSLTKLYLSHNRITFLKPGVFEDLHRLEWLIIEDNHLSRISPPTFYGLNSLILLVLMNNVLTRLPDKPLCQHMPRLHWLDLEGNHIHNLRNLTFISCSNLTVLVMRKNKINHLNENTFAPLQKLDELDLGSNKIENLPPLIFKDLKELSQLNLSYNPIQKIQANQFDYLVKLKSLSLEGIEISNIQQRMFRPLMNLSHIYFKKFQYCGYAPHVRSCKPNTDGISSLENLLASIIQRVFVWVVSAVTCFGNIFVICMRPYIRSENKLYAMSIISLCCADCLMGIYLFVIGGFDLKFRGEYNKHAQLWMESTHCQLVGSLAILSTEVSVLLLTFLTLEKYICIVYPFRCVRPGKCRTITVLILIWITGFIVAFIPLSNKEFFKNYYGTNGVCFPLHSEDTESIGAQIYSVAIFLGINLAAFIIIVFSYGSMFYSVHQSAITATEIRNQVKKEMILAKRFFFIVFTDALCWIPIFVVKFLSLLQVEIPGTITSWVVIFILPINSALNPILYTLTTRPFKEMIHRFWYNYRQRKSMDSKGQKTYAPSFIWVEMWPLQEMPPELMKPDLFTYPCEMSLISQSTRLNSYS


target: T1, human RXFP1; test: cell-based or functional assay

Binder	Potency (cAMP, transient hRXFP1 in HEK293)
SEQ ID NO: 362 (Fc fusion) DKTHTCPPCPAPEAAGGPSVFLFPPKPKDTLMISRTPEVTCVVVDVSHEDPEVKFNWYVDGVEVHNAKTKPREEQYNSTYRVVSVLTVLHQDWLNGKEYKCKVSNKALAAPIEKTISKAKGQPREPQVYTLPPSRDELTKNQVSLTCLVKGFYPSDIAVEWESNGQPENNYKTTPPVLDSDGSFFLYSKLTVDKSRWQQGNVFSCSVLHEALHSHYTQKSLSLSPGKGGSDSWKEEVIKLCGRELVRAQIAICGKSTGGGEGGGEGGGEGGGQLYSALANKCCHVGCTKRSLARFC	12.3 nM
SEQ ID NO: 307 (Fc fusion) DKTHTCPPCPAPEAAGGPSVFLFPPKPKDTLMISRTPEVTCVVVDVSHEDPEVKFNWYVDGVEVHNAKTKPREEQYNSTYRVVSVLTVLHQDWLNGKEYKCKVSNKALAAPIEKTISKAKGQPREPQVYTLPPSRDELTKNQVSLTCLVKGFYPSDIAVEWESNGQPENNYKTTPPVLDSDGSFFLYSKLTVDKSRWQQGNVFSCSVLHEALHSHYTQKSLSLSPGKGGSDSWQEEVIKLCGRELVRAQIAICGKSTGGGEGGGEGGGEGGGQLYSALANKCCHVGCTKRSLARFC	15.8 nM
SEQ ID NO: 325 (Fc fusion) DKTHTCPPCPAPEAAGGPSVFLFPPKPKDTLMISRTPEVTCVVVDVSHEDPEVKFNWYVDGVEVHNAKTKPREEQYNSTYRVVSVLTVLHQDWLNGKEYKCKVSNKALAAPIEKTISKAKGQPREPQVYTLPPSRDELTKNQVSLTCLVKGFYPSDIAVEWESNGQPENNYKTTPPVLDSDGSFFLYSKLTVDKSRWQQGNVFSCSVLHEALHSHYTQKSLSLSPGGGSDSWQEEVIKLCGRELVRAQIAICGKSTGGGEEGGGEEGGGRQLYSALANKCCHVGCTKRSLAQFC	23.4 nM
SEQ ID NO: 315 (Fc fusion) DKTHTCPPCPAPEAAGGPSVFLFPPKPKDTLMISRTPEVTCVVVDVSHEDPEVKFNWYVDGVEVHNAKTKPREEQYNSTYRVVSVLTVLHQDWLNGKEYKCKVSNKALAAPIEKTISKAKGQPREPQVYTLPPSRDELTKNQVSLTCLVKGFYPSDIAVEWESNGQPENNYKTTPPVLDSDGSFFLYSKLTVDKSRWQQGNVFSCSVLHEALHSHYTQKSLSLSPGGGSDSWQEEVIKLCGRELVRAQIAICGKSTGGGEGGGEGGGEGRQLYSALANKCCHVGCTKRSLARFC	3.3 nM
SEQ ID NO: 361 (Fc fusion) DKTHTCPPCPAPEAAGGPSVFLFPPKPKDTLMISRTPEVTCVVVDVSHEDPEVKFNWYVDGVEVHNAKTKPREEQYNSTYRVVSVLTVLHQDWLNGKEYKCKVSNKALAAPIEKTISKAKGQPREPQVYTLPPSRDELTKNQVSLTCLVKGFYPSDIAVEWESNGQPENNYKTTPPVLDSDGSFFLYSKLTVDKSRWQQGNVFSCSVLHEALHSHYTQKSLSLSPGKGGSDSWKEEVIKLCGRELVRAQIAICGKSTGGGEGGGEGGGEGRQLYSALANKCCHVGCTKRSLARFC	2.5 nM
SEQ ID NO: 326 (Fc fusion) DKTHTCPPCPAPEAAGGPSVFLFPPKPKDTLMISRTPEVTCVVVDVSHEDPEVKFNWYVDGVEVHNAKTKPREEQYNSTYRVVSVLTVLHQDWLNGKEYKCKVSNKALAAPIEKTISKAKGQPREPQVYTLPPSRDELTKNQVSLTCLVKGFYPSDIAVEWESNGQPENNYKTTPPVLDSDGSFFLYSKLTVDKSRWQQGNVFSCSVLHEALHSHYTQKSLSLSPGKGGSDSWQEEVIKLCGRELVRAQIAICGKSTGGEGEGGEGEGGSRQLYSALANKCCHVGCTKRSLAQFC	18.9 nM
SEQ ID NO: 304 (Fc fusion) DKTHTCPPCPAPEAAGGPSVFLFPPKPKDTLMISRTPEVTCVVVDVSHEDPEVKFNWYVDGVEVHNAKTKPREEQYNSTYRVVSVLTVLHQDWLNGKEYKCKVSNKALAAPIEKTISKAKGQPREPQVYTLPPSRDELTKNQVSLTCLVKGFYPSDIAVEWESNGQPENNYKTTPPVLDSDGSFFLYSKLTVDKSRWQQGNVFSCSVLHEALHSHYTQKSLSLSPGKGGSDSWQEEVIKLCGRELVRAQIAICGKSTGGGEGGGEGGGEGRQLYSALANKCCHVGCTKRSLARFC	2.5 nM
SEQ ID NO: 321 (Fc fusion) DKTHTCPPCPAPEAAGGPSVFLFPPKPKDTLMISRTPEVTCVVVDVSHEDPEVKFNWYVDGVEVHNAKTKPREEQYNSTYRVVSVLTVLHQDWLNGKEYKCKVSNKALAAPIEKTISKAKGQPREPQVYTLPPSRDELTKNQVSLTCLVKGFYPSDIAVEWESNGQPENNYKTTPPVLDSDGSFFLYSKLTVDKSRWQQGNVFSCSVLHEALHSHYTQKSLSLSPGKGGSDSWQEEVIKLCGRELVRAQIAICGKSTGGGEEGGGEEGGGRQLYSALANKCCHVGCTKRSLAQFC	10.2 nM
SEQ ID NO: 319 (Fc fusion) DKTHTCPPCPAPEAAGGPSVFLFPPKPKDTLMISRTPEVTCVVVDVSHEDPEVKFNWYVDGVEVHNAKTKPREEQYNSTYRVVSVLTVLHQDWLNGKEYKCKVSNKALAAPIEKTISKAKGQPREPQVYTLPPSRDELTKNQVSLTCLVKGFYPSDIAVEWESNGQPENNYKTTPPVLDSDGSFFLYSKLTVDKSRWQQGNVFSCSVLHEALHSHYTQKSLSLSPGKGGSDSWQEEVIKLCGRELVRAQIAICGKSTGGGEEGGGEEGGGRQLYSALANKCCHVGCTKRSLARFC	5.8 nM
SEQ ID NO: 363 (Fc fusion) DKTHTCPPCPAPEAAGGPSVFLFPPKPKDTLMISRTPEVTCVVVDVSHEDPEVKFNWYVDGVEVHNAKTKPREEQYNSTYRVVSVLTVLHQDWLNGKEYKCKVSNKALAAPIEKTISKAKGQPREPQVYTLPPSRDELTKNQVSLTCLVKGFYPSDIAVEWESNGQPENNYKTTPPVLDSDGSFFLYSKLTVDKSRWQQGNVFSCSVLHEALHSHYTQKSLSLSPGKGGSDSWMEEVIKLCGRELVRAQIAICGKSTGGGEGGGEGGGEGRQLYSALANKCCHVGCTKRSLARFC	2.9 nM

Results, then the binder that gave them:

Potency (cAMP, transient hRXFP1 in HEK293)	Binder
16 nM	SEQ ID NO: 364 (Fc fusion) DKTHTCPPCPAPEAAGGPSVFLFPPKPKDTLMISRTPEVTCVVVDVSHEDPEVKFNWYVDGVEVHNAKTKPREEQYNSTYRVVSVLTVLHQDWLNGKEYKCKVSNKALAAPIEKTISKAKGQPREPQVYTLPPSRDELTKNQVSLTCLVKGFYPSDIAVEWESNGQPENNYKTTPPVLDSDGSFFLYSKLTVDKSRWQQGNVFSCSVLHEALHSHYTQKSLSLSPGKGGSDSWMEEVIKLCGRELVRAQIAICGKSTGGGEGGGEGGGEGGGQLYSALANKCCHVGCTKRSLARFC
0.5 nM	SEQ ID NO: 369 (Fc fusion) DKTHTCPPCPAPEAAGGPSVFLFPPKPKDTLMISRTPEVTCVVVDVSHEDPEVKFNWYVDGVEVHNAKTKPREEQYNSTYRVVSVLTVLHQDWLNGKEYKCKVSNKALAAPIEKTISKAKGQPREPQVYTLPPSRDELTKNQVSLTCLVKGFYPSDIAVEWESNGQPENNYKTTPPVLDSDGSFFLYSKLTVDKSRWQQGNVFSCSVLHEALHSHYTQKSLSLSPGKGGSDSWKEEVIKLCGRELVRAQIAICGKSTASDAAGANANAGARQLYSALANKCCHVGCTKRSLAQFC
1.8 nM	SEQ ID NO: 370 (Fc fusion) DKTHTCPPCPAPEAAGGPSVFLFPPKPKDTLMISRTPEVTCVVVDVSHEDPEVKFNWYVDGVEVHNAKTKPREEQYNSTYRVVSVLTVLHQDWLNGKEYKCKVSNKALAAPIEKTISKAKGQPREPQVYTLPPSRDELTKNQVSLTCLVKGFYPSDIAVEWESNGQPENNYKTTPPVLDSDGSFFLYSKLTVDKSRWQQGNVFSCSVLHEALHSHYTQKSLSLSPGKGGSDSWKEEVIKLCGRELVRAQIAICGKSTASDAAGANANAGARQLYSALANKCCHVGCTKRSLAEFC
101 nM	SEQ ID NO: 368 (Fc fusion) DKTHTCPPCPAPEAAGGPSVFLFPPKPKDTLMISRTPEVTCVVVDVSHEDPEVKFNWYVDGVEVHNAKTKPREEQYNSTYRVVSVLTVLHQDWLNGKEYKCKVSNKALAAPIEKTISKAKGQPREPQVYTLPPSRDELTKNQVSLTCLVKGFYPSDIAVEWESNGQPENNYKTTPPVLDSDGSFFLYSKLTVDKSRWQQGNVFSCSVLHEALHSHYTQKSLSLSPGGGSDSWQEEVIKLCGRELVRAQIAICGKSTGGEGGGEEGGGEGGQLYSALANKCCHVGCTKRSLARFC
62.8 nM	SEQ ID NO: 366 (Fc fusion) DKTHTCPPCPAPEAAGGPSVFLFPPKPKDTLMISRTPEVTCVVVDVSHEDPEVKFNWYVDGVEVHNAKTKPREEQYNSTYRVVSVLTVLHQDWLNGKEYKCKVSNKALAAPIEKTISKAKGQPREPQVYTLPPSRDELTKNQVSLTCLVKGFYPSDIAVEWESNGQPENNYKTTPPVLDSDGSFFLYSKLTVDKSRWQQGNVFSCSVLHEALHSHYTQKSLSLSPGKGGSDSWQEEVIKLCGRELVRAQIAICGKSTGGEGGGEEGGGEGGQLYSALANKCCHVGCTKRSLARFC
60.3 nM	SEQ ID NO: 365 (Fc fusion) DKTHTCPPCPAPEAAGGPSVFLFPPKPKDTLMISRTPEVTCVVVDVSHEDPEVKFNWYVDGVEVHNAKTKPREEQYNSTYRVVSVLTVLHQDWLNGKEYKCKVSNKALAAPIEKTISKAKGQPREPQVYTLPPSRDELTKNQVSLTCLVKGFYPSDIAVEWESNGQPENNYKTTPPVLDSDGSFFLYSKLTVDKSRWQQGNVFSCSVLHEALHSHYTQKSLSLSPGKGGSDSWMEEVIKLCGRELVRAQIAICGKSTGGEGGGEEGGGEGGQLYSALANKCCHVGCTKRSLARFC
